Laboratory results reported in article PMC10441386 (bioRxiv, 2023).
Non-standard residues stand in square brackets, D forms with d. No end group written: not given here. Trp(5-OH) = N[C@@H](Cc1c[nH]c2ccc(O)cc12)C(=O)O; Phe(4-NH2) = Nc1ccc(C[C@H](N)C(=O)O)cc1

B1: CN2097 (peptide)
chain 1: RRRRRRRC
chain 2: CKNYKKTEV
B2: D-Syn3 (peptide)
chain 1: RRRRRRRC
chain 2: CGSFPPWVQKTEV
modifications: cysteine pairing not given here; also: D- prefix in name, meaning not given here

These molecules were tested against PSD-95 PDZ3cα protein (residues R309-S422) (UniProt P78352 309-422) (assay: SPR). Conditions: not given.
Sequence of PSD-95 PDZ3cα protein (residues R309-S422) (P78352 309-422): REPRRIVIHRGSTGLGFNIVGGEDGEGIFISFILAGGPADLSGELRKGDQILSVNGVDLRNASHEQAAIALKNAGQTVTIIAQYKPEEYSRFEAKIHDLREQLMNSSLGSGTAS

koff | kon | Molecule
0.0182 s⁻¹ | 317000 M⁻¹ s⁻¹ | RRRRRRGSFPPWV[dQ]QTRV [SYNGAP peptide D-Gln9]
0.00592 s⁻¹ | 1000 M⁻¹ s⁻¹ | GSFPPWVQ [aC binder peptide]
0.0104 s⁻¹ | 153000 M⁻¹ s⁻¹ | RRRRRRGS[Phe(4-NH2)]PPWVQQTRV [SYNGAP peptide F4-NH2F]
0.0116 s⁻¹ | 1.88e+06 M⁻¹ s⁻¹ | RRRRRRGSF[dP]PWVQQTRV [SYNGAP peptide D-Pro4]
0.00109 s⁻¹ | 6000 M⁻¹ s⁻¹ | B1
0.00493 s⁻¹ | 633000 M⁻¹ s⁻¹ | RRRRRRG[dS]FPPWVQQTRV [SYNGAP peptide D-Ser3]
0.0287 s⁻¹ | 439000 M⁻¹ s⁻¹ | CGSFPPWVKKTEV (not fully specified) [Syn3*]
0.0125 s⁻¹ | 458000 M⁻¹ s⁻¹ | B2
0.0459 s⁻¹ | 2.19e+06 M⁻¹ s⁻¹ | RRRRRRGSFPPW[dV]QQTRV [SYNGAP peptide D-Val8]
0.0106 s⁻¹ | 24000 M⁻¹ s⁻¹ | RRRRRRGSFPP[Trp(5-OH)]VQQTRV [SYNGAP peptide W7-OHW]
0.0444 s⁻¹ | 1.83e+06 M⁻¹ s⁻¹ | RRRRRRGSFP[dP]WVQQTRV [SYNGAP peptide D-Pro5]

What follows are molecules tested against T1, PSD-95 PDZ3cα (residues R309-S422) (Homo sapiens, UniProt P78352) (assay: SPR). Conditions: not given.
T1 sequence (P78352 309-422): as above

koff | kon | Molecule
0.00294 s⁻¹ |  | SYNGAP peptide V8I
0.0261 s⁻¹ | 216000 M⁻¹ s⁻¹ | SYNGAP peptide F4H
0.00381 s⁻¹ |  | SYNGAP peptide V8L

These molecules were tested against T1, PSD-95 PDZ3cα (residues R309-S422) (assay: SPR binding of peptides to immobilized PDZ3cα). Conditions: not given.

Molecule | Kd
RRRRRRGSHPPWVQQTRV [F4H] | 121 nM
CC(C)[C@H](NC(=O)[C@H](CCCNC(=N)N)NC(=O)[C@@H](NC(=O)[C@H](CCC(N)=O)NC(=O)[C@@H](CCC(N)=O)NC(=O)[C@@H](NC(=O)[C@H](Cc1c[nH]c2ccccc12)NC(=O)[C@@H]1CCCN1C(=O)[C@@H]1CCCN1C(=O)[C@H](Cc1ccccc1)NC(=O)[C@H](CO)NC(=O)CNC(=O)[C@H](CCCNC(=N)N)NC(=O)[C@H](CCCNC(=N)N)NC(=O)[C@H](CCCNC(=N)N)NC(=O)[C@H](CCCNC(=N)N)NC(=O)[C@H](CCCNC(=N)N)NC(=O)[C@@H](N)CCCNC(=N)N)C(C)C)[C@@H](C)O)C(=O)O [D-Gln9] | 57.3 nM
CC(C)[C@H](NC(=O)[C@H](CCCNC(=N)N)NC(=O)[C@@H](NC(=O)[C@H](CCC(N)=O)NC(=O)[C@H](CCC(N)=O)NC(=O)[C@@H](NC(=O)[C@H](Cc1c[nH]c2ccccc12)NC(=O)[C@H]1CCCN1C(=O)[C@@H]1CCCN1C(=O)[C@H](Cc1ccccc1)NC(=O)[C@H](CO)NC(=O)CNC(=O)[C@H](CCCNC(=N)N)NC(=O)[C@H](CCCNC(=N)N)NC(=O)[C@H](CCCNC(=N)N)NC(=O)[C@H](CCCNC(=N)N)NC(=O)[C@H](CCCNC(=N)N)NC(=O)[C@@H](N)CCCNC(=N)N)C(C)C)[C@@H](C)O)C(=O)O [D-Pro5] | 24.3 nM
CC(C)[C@H](NC(=O)[C@H](CCCNC(=N)N)NC(=O)[C@@H](NC(=O)[C@H](CCC(N)=O)NC(=O)[C@H](CCC(N)=O)NC(=O)[C@H](NC(=O)[C@H](Cc1c[nH]c2ccccc12)NC(=O)[C@@H]1CCCN1C(=O)[C@@H]1CCCN1C(=O)[C@H](Cc1ccccc1)NC(=O)[C@H](CO)NC(=O)CNC(=O)[C@H](CCCNC(=N)N)NC(=O)[C@H](CCCNC(=N)N)NC(=O)[C@H](CCCNC(=N)N)NC(=O)[C@H](CCCNC(=N)N)NC(=O)[C@H](CCCNC(=N)N)NC(=O)[C@@H](N)CCCNC(=N)N)C(C)C)[C@@H](C)O)C(=O)O [D-Val8] | 20.9 nM
GSFPPWVQ [aC binder, reference compound] | 11100 nM
CC(C)[C@H](NC(=O)[C@H](CCCNC(=N)N)NC(=O)[C@@H](NC(=O)[C@H](CCC(N)=O)NC(=O)[C@H](CCC(N)=O)NC(=O)[C@@H](NC(=O)[C@H](Cc1c[nH]c2ccccc12)NC(=O)[C@@H]1CCCN1C(=O)[C@H]1CCCN1C(=O)[C@H](Cc1ccccc1)NC(=O)[C@H](CO)NC(=O)CNC(=O)[C@H](CCCNC(=N)N)NC(=O)[C@H](CCCNC(=N)N)NC(=O)[C@H](CCCNC(=N)N)NC(=O)[C@H](CCCNC(=N)N)NC(=O)[C@H](CCCNC(=N)N)NC(=O)[C@@H](N)CCCNC(=N)N)C(C)C)[C@@H](C)O)C(=O)O [D-Pro4] | 6.1 nM
RRRRRRGSFPPWIQQTRV [V8I] | 101 nM
CC(C)[C@H](NC(=O)[C@H](CCCNC(=N)N)NC(=O)[C@@H](NC(=O)[C@H](CCC(N)=O)NC(=O)[C@H](CCC(N)=O)NC(=O)[C@@H](NC(=O)[C@H](Cc1c[nH]c2ccccc12)NC(=O)[C@@H]1CCCN1C(=O)[C@@H]1CCCN1C(=O)[C@H](Cc1ccccc1)NC(=O)[C@@H](CO)NC(=O)CNC(=O)[C@H](CCCNC(=N)N)NC(=O)[C@H](CCCNC(=N)N)NC(=O)[C@H](CCCNC(=N)N)NC(=O)[C@H](CCCNC(=N)N)NC(=O)[C@H](CCCNC(=N)N)NC(=O)[C@@H](N)CCCNC(=N)N)C(C)C)[C@@H](C)O)C(=O)O [D-Ser3] | 7.8 nM
RRRRRRGSFPPWLQQTRV [V8L] | 58.4 nM

What follows are molecules tested on AS mouse model (assay: AS mouse model / animal studies). Conditions: data to be reported elsewhere.
Format: in vivo

Molecule | effect in AS mouse model / animal studies
CC(C)[C@H](NC(=O)[C@H](CCCNC(=N)N)NC(=O)[C@@H](NC(=O)[C@H](CCC(N)=O)NC(=O)[C@H](CCC(N)=O)NC(=O)[C@@H](NC(=O)[C@H](Cc1c[nH]c2ccccc12)NC(=O)[C@@H]1CCCN1C(=O)[C@@H]1CCCN1C(=O)[C@H](Cc1ccccc1)NC(=O)[C@H](CO)NC(=O)CNC(=O)[C@H](CS)NC(=O)[C@H](CS)NC(=O)[C@H](CCCNC(=N)N)NC(=O)[C@H](CCCNC(=N)N)NC(=O)[C@H](CCCNC(=N)N)NC(=O)[C@H](CCCNC(=N)N)NC(=O)[C@H](CCCNC(=N)N)NC(=O)[C@H](CCCNC(=N)N)NC(=O)[C@@H](N)CCCNC(=N)N)C(C)C)[C@@H](C)O)C(=O)O [SYNGAP] | did not have the same beneficial effects as Syn3
